Usually Km stands for the concentration of substrate that gives half-maximal velocity.

The test system of data set [1] is N[C@@H](CC(=O)O)C(=O)Nc1ccc([N+](=O)[O-])cc1. The experiment in a line: purified protein. Conditions: 10 mM Tris-HCl, pH 7.5, 50 °C.
Data set [2] deals with N[C@@H](CCC(=O)O)C(=O)Nc1ccc([N+](=O)[O-])cc1. The experiment in a line: purified protein. The conditions noted are these: 10 mM Tris-HCl, pH 7.5, 50 °C.

In the case of “bDNPEP (recombinant bovine aspartyl aminopeptidase) (Bos taurus)”, the results for the Km in data set [1] and in data set [2] were 389 µM and 314 µM, respectively.

On to “cDNPEP (recombinant chicken aspartyl aminopeptidase) (Gallus gallus)”, for which the values for the Km in data set [1] and in data set [2] were 767 µM and 137 µM, respectively.

The values are drawn from article PMC8991601.
